In article PMC8558179, “The C-terminal peptide of CCL21 drastically augments CCL21 activity through the dendritic cell lymph node homing receptor CCR7 by interaction with the receptor N-terminus” (Cellular and Molecular Life Sciences: CMLS, 2021):
Entries after “also recorded” stand apart in the source; their conditions may differ.

Columns and labels:
[1] = test system: human moDCs naturally expressing CCR7; assay: 3D chemotaxis, time-lapse recording of human moDCs in Collagen I (chemotactic index); format: cell-based
Protocol: Buffy coats were obtained from Rigshospitalet Copenhagen, as anonymous material, with written informed consent from the donors. The local ethics committee at Faculty of Health and Medical Sciences at the University of Copenhagen (Research Ethics Committee for Sund and Science, University of Copenhagen) found the project exempt from approval. DCs were prepared from human peripheral blood mononuclear cells (PBMC) isolated from buffy coats by centrifugation on a Lymphoprep gradient as previously described. Briefly, monocytes were isolated by plastic adherence of PBMC. Adhered monocytes were subsequently cultured and differentiated into immature DCs by incubation with IL-4 (250 U/ml) and GM-CSF (1000 U/ml) for 6 days, followed by activation into mature DCs by incubation with IL-6 (1000 U/ml), IL-1β (1000 U/ml), TNF-α (1000 U/ml), and PGE2 (1 µg/ml) for an additional 2 days in the same medium.
(§1) Human DCs were cultured in X-vivo 15 medium with 2% human AB serum and glutamine. CHO-K1 pgsB-618 ATCC® CRL2241™ [24] and CHO-K1 cells were grown in RPMI with 10% FBS and Penicillin/Streptomycin. HS^−/− (CHO EXTL 2/3 −/−), CS^−/− (CSGALNACT 1/2^−/− CHSY1^−/−), 5xKO (GalNAc-T1, 2, 4, 7 and 10 −/−) and WT CHO suspension cells were grown in suspension in 1:1 of EX-Cell CD CHO fusion media and Balanced CD CHO growth A medium supplemented with 2% glutamine and Penicillin/Streptomycin. Cells were kept in a humidified incubator at 37 °C, 5% CO2.
Chemotaxis assays were conducted as previously described. Briefly, mature human moDCs were left to acclimatize in medium for 30 min at room temperature (RT) upon defrosting, before assay start. DCs were seeded in Bovine Collagen I mixture prepared by mixing 10 µl Na2HCO3 (7.5%), 20 µl MEM (10×), 150 µl PureCol and 90 µl DCs dissolved in X-vivo 15 medium (2 × 10^6 cells/ml). After incubation for 45 min in a humidified incubator at 37 °C (5% CO2), the source and sink reservoirs were filled according to the manufacturer’s instructions and chemotaxis was tracked in a time-lapse microscope with a humidified temperature controlled stage incubator for 12 h at a 2 min interval. Cell migration (approximately 20–40 cells per viewing field) was tracked using a commercial tracking program (Autozell) and subsequently analyzed to get a population-based chemotactic index (CI) value (MATLAB). CI is a measure of net translocation distance to the source relative to total distance traveled and was thus calculated as the ratio of the distance traveled in the direction of the gradient over the total distance traveled and therefore is a conservative measure of the directedness of cell migration.

human CCR7 = biological target: T1, human CCR7 (Homo sapiens, UniProt P32248); assay: Gαi signaling, BRET-based cAMP (CAMYEL) assay at CCR7 in CHO cells; format: cell-based; conditions: for effect of C21TP on CCL21^Tailless activity (Gαi signaling): CCL21^Tailless (CCL21 1–79) + 10 µM TP71-111, n = 4
T1 construct: CCR7 contains a 24-residue long signal peptide cleaved of from the mature protein; expressed in transfected cells; host or cells: CHO cells (CHO-K1, CHO suspension WT, GAG-deficient and 5xKO GalNAc-T knockout lines), transient transfection
T1 sequence (P32248 25-378): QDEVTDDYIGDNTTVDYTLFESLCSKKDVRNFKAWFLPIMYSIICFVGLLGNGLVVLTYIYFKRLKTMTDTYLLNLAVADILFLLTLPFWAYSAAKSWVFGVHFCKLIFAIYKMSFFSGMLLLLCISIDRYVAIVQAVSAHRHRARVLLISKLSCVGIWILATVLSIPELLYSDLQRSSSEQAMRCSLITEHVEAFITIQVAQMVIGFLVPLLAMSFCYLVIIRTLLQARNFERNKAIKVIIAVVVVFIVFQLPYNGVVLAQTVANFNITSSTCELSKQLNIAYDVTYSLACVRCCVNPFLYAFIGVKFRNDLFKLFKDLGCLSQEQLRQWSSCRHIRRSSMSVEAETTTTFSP
Protocol: as §1
For cAMP assays, adherent CHO cells were transfected using lipofectamine while suspension cells were transfected using the FectoPro method. Cells were seeded in a 6-well plate, either 500,000 (adherent cells) or 200,000 (suspension cells) cells/well. The next day the cells were transiently transfected with vectors encoding the human CCR7 and CAMYEL sensor (cAMP sensor using YFP-Epac-RLuc) in a 1:5 ratio using lipofectamine (6 µl/well) or FectoPro (4 µl/well). Lipofectamine transfections were terminated by changing to 2 ml fresh cultivation medium after 5 h, while Fectopro transfection was terminated after 3 h by adding 2.5 ml fresh cultivation medium and 2 µl FectoPro Boost reagent per well. The cells were incubated under standard cultivation conditions overnight. For β-arrestin recruitment assays, cells were transfected with CCR7 and vectors expressing a Renilla luciferase arrestin3 fusion protein and membrane-SH3-citrine protein. The cells were then resuspended in PBS w/glucose and seeded in 96-well white iso plates (~ 25,000 cells/well). Coelenterazine (bioluminescence substrate) was added to a final conc. of 5 µM. After 10 min, cells were stimulated with varying ligand concentrations for a total of 40 min. Forskolin was added to each well 5 min after ligand addition to reach a final conc. of 5 µM. The plates were kept in the dark at all times. Emission signal from Rluc and eYFP was measured using the Envision machine at 530 and 480 nm and the BRET signal determined as the ratio between (eYFP/Rluc).

CCL21 = conditions: cited from earlier work
Text: Another phenomenon that could explain the C21TP boosting ability would be that the peptide was able to relieve the auto-inhibition of CCL21. The peptide could potentially occupy the site on CCL21 normally contacted by the attached basic C-terminus during the auto-inhibition process, in this way preventing the formation of the locked CCL21 version. In this way the peptide could participate in unfolding of CCL21, similar to the process that is predicted to take place in the presence of polysialic acid residues. The boosting effect of C21TP on CCL19 could also be based on a direct chemokin ...

Collagen I = conditions: cited from earlier work
Text: In the current study we have used Collagen I in the 3D chemotaxis assays. Collagen I has low affinity for CCL21 [31]. Matrigel on the other hand binds CCL21 well. As CCL21 is immobilized in vivo [20], to evaluate the full effect of C21TP on dendritic cell migration, experiments using Matrigel would need to be conducted. Such assay could reveal if C21TP affect the interaction between CCR7 and immobilized CCL21 where the basic tail is participating in surface tethering and potentially unable to engage in steric hindrance of CCR7. Again, since boosting of in vitro signaling occurred in both p ...

With “TP71-111: free CCL21 C-terminal peptide, residues 71–111 (41 amino acids, positively charged) (PSPQKPAQGCRKDRGASKTGKKGKGSKGCKRTERSQTPKGP; UniProt O00585 94-134, looked up, fragment)” the “increase of CCL19-induced DC chemotaxis” value ([1]; 10 nM CCL19 + 10 µM TP71-111, human moDCs, n = 3–6) was “significantly increased in the presence of 10 µM C21TP (TP71-111), by approximately twofold”, the “fold boost of CCL21-induced DC chemotaxis (immune cell recruiting activity)” value ([1]; 10 nM CCL21, highest C21TP concentration 10 µM (0.1–10 µM tested), human moDCs, 12 h tracking, 37 °C, n = 3–11) was “up to 25 fold” and the “boosting of CCL21-induced DC chemotaxis” value ([1]; 10 nM CCL21, peptide 10 µM (0.1–10 µM in the dose series), human moDCs) was “boosted significantly by the C21TP in a dose-dependent manner”. The “DC chemotaxis by C21TP alone” value ([1]; C21TP without chemokine, data not shown) was “did not induce DC chemotaxis”, the “fold reduction of C21TP boosting effect on CCL21 signaling in 5xKO vs WT” value (human CCR7; CCL21 + 10 µM TP71-111, CHO 5xKO vs WT) was 25 fold and the “effect of C21TP on CCL21^Tailless activity (Gαi signaling)” value (human CCR7) was “not improved”. For the same molecule, the “effect of C21TP on CCL21^Tailless activity (Gαi signaling)” value (human CCR7; listed as C21TP) was “did not affect CCL21^Tailless potency”, the “boosting of CCL21-induced CCR7 signaling in GAG KO cells” value (human CCR7; CHO GAG KO (pgsB 618) vs WT, 10 µM TP71-111, n = 3) was “tendency that boosting by C21TP (TP71-111) was increased” and the “boosting of CCL21-induced CCR7 signaling in GAG-deficient cells” value (human CCR7; CHO HS−/−, CS−/− and GAG KO (pgsB 618) cells, 10 µM TP71-111, n = 3) was “In none of the GAG-deficient cells did we measure any decrease”. For the same molecule, the “boosting of CCL19-induced CCR7 signaling in GAG-deficient cells” value (human CCR7; CHO HS−/−, CS−/−, GAG KO cells, 10 µM TP71-111, n = 3, listed as C21TP) was “similarly unaffected by the lack of GAGs; also recorded: independent of cell GAG status” and the “fold boost of CCL21 signaling activity via CCR7” value (human CCR7; in the presence of C21TP) was ~ 100 fold.

B1: CCL21: full-length chemokine (residues 1–111), CCR7 ligand, from R&D Systems (protein, UniProt O00585 24-134, looked up)
C-C motif chemokine 21: SDGGAQDCCLKYSQRKIPAKVVRSYRKQEPSLGCSIPAILFLPRKRSQAELCADPKELWVQQLMQHLDKTPSPQKPAQGCRKDRGASKTGKKGKGSKGCKRTERSQTPKGP
In the case of B1, the “chemotaxis towards chemokine alone” value ([1]; 10 nM chemokine, no peptide, human moDCs) is given as “very weak chemotactic cue”, the “pEC50, Gαi signaling, chemokine alone” value (human CCR7; no peptide, CHO cells, forskolin 5 µM, n = 4) is given as 6.46 and the CCL21 self-association (CCL21) is given as “weak and only detectable at mM concentrations”. The “affinity of Collagen I for CCL21” value (Collagen I) was “low affinity”.
